Assay results taken from the supplement of paper PMC10126150.
± gives the standard deviation of the averaged measurements.

Tested on: ATP
Assay: switch fluorescence ratio, 500 uM ATP over buffer (Cy3 cluster intensity, sum of 5 cycles each) (fold (ratio)); higher = stronger signal-on switching upon ATP binding; sequences stand for … in TCGTCGGCAGCGTCAGATGTGTATAAGAGACAGTTTTTTTTTTTTTTTTTTTTTTTTT…TC
Conditions: aptamer strand: ATP DNA aptamer (quencher-CACCTGGGGGAGTATTGCGGAGGAAGG + anchor), 100 nM annealed; ATP concentration: 500 uM
Summary of the method: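 After annealing to 100 nM quencher-labelled ATP aptamer, Cy3-labelled switching-strand clusters on a modified Illumina MiSeq flow-cell were imaged in selection buffer. A second image followed after 15 min with 500 uM ATP at 22 °C, and five such buffer/ATP cycles were done, each separated by NaOH stripping and re-annealing. The fluorescence ratio, averaged per switch-domain sequence, is summed target-cycle over summed buffer-cycle Cy3 intensity per cluster, with clusters outside 100-1000 RFU excluded.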
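Also: ATP exposure 15 min at 22 °C before imaging.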

| Sequence | switch fluorescence ratio |
| --- | --- |
| TGCGTCGGTG | 1.03 ± 0.049 |
| TATTTATTTG | 1.02 ± 0.045 |
| TTAACAGTGG | 0.989 ± 0.032 |
| CGGGGCTCCG | 0.967 ± 0.023 |
| CTTTGTAGGG | 1.008 ± 0.0029 |
| CCCGGGTTAG | 1.08 ± 0.028 |
| GATTAATGAG | 1.01 ± 0.027 |
| GATTAAAACT | 1.07 ± 0.025 |
| AGTTGGCTTG | 1.03 ± 0.03 |
| ATTGACGGCA | 1.02 ± 0.032 |
| TTTTATGAAA | 0.997 ± 0.012 |
| GGGCTAGACG | 0.997 ± 0.085 |
| ATGCAGTATG | 0.967 ± 0.025 |
| AATGATTGTT | 0.992 ± 0.03 |
| TCTACGAAGG | 1.034 ± 0.0012 |
| ACGAAATAGT | 1.183 ± 0.0065 |
| ATATGAGTTT | 1.01 ± 0.017 |
| ATGGTAATTT | 0.977 ± 0.017 |
| GTTTTAAATG | 0.975 ± 0.016 |
| ATGCGGGTG | 1.04 ± 0.061 |
| ATGTGGCGTC | 1.01 ± 0.019 |
| CGGGGTATCT | 0.979 ± 0.018 |
| AAGCGAAAGA | 1.03 ± 0.014 |
| AGTAGAATTG | 0.966 ± 0.054 |
| ATTGGAGGGG | 1.008 ± 0.0041 |

| Sequence | switch fluorescence ratio |
| --- | --- |
| TTAATTTACA | 1.09 ± 0.044 |
| GAGGGTTAAG | 1.02 ± 0.029 |
| AGTTTAGTGA | 0.996 ± 0.044 |
| TTCCTTTTTT | 1.03 ± 0.065 |
| TATAGGGAGT | 1.01 ± 0.014 |
| AGATAGTTGG | 0.99 ± 0.038 |
| TGTGGGCAAT | 1.56 ± 0.77 |
| TATAATCATT | 0.985 ± 0.028 |
| GACGAAATTG | 0.99836 ± 0.0003 |
| GTTTGATGGG | 0.981 ± 0.033 |
| GGGGTGAGAA | 1.02 ± 0.046 |
| GATTTCATG | 0.993 ± 0.019 |
| TGTGTGTGAA | 0.996 ± 0.035 |
| TTAGTATATA | 0.9946 ± 0.0059 |
| TTGCTATATT | 1.01 ± 0.032 |
| ATATTCGCAC | 1.19 ± 0.063 |
| GTATTGGATA | 0.998 ± 0.042 |
| GACGCCTAGT | 1.036 ± 0.0021 |
| TTTCTCCGGT | 1.53 ± 0.39 |
| TTGTTGTGGG | 0.986 ± 0.024 |
| GCCAAAGGGA | 1.01 ± 0.063 |
| TCTGGGCCAT | 1.29 ± 0.43 |
| AGTGACATCG | 1.14 ± 0.076 |
| AGAAATCTTG | 0.983 ± 0.021 |
| GTGTTGGACC | 0.9782 ± 0.00099 |

| Sequence | switch fluorescence ratio |
| --- | --- |
| GGCCTTATTG | 1 ± 0.031 |
| AGTGTAATGT | 0.975 ± 0.059 |
| ACGTCAGTCA | 0.976 ± 0.023 |
| CGCTTTTCGT | 1.0023 ± 8e-05 |
| GCTTCCTTTT | 1.01 ± 0.022 |
| GCAGTAGTGG | 1.2 ± 0.33 |
| TTTGAAGGAT | 1.29 ± 0.35 |
| TTCCAAAAAA | 1.1 ± 0.04 |
| CACAACACTC | 1.37 ± 0.044 |
| GTTGGTTTGG | 1.04 ± 0.013 |
| AGTTGCCCGG | 1.006 ± 0.0068 |
| ATGGGCATGG | 1.04 ± 0.072 |
| GTGAGGCGGA | 1.07 ± 0.087 |
| AAAGGAAATT | 1 ± 0.033 |
| CTGGGCAGAG | 1.02 ± 0.043 |
| TAAAGTAGTT | 1.01 ± 0.044 |
| AACATATGTT | 0.972 ± 0.025 |
| TAAATGGCCA | 0.9798 ± 0.0051 |
| AATTCAGCCT | 1.06 ± 0.035 |
| AATATCATAC | 1.05 ± 0.021 |
| ATTAGTACTT | 0.987 ± 0.015 |
| CAATTGGCCT | 1.05 ± 0.03 |
| ATTTGTATCC | 0.994 ± 0.021 |
| ATCAAGGACG | 1.02 ± 0.05 |
| TCATGGCACG | 1.02 ± 0.019 |

| Sequence | switch fluorescence ratio |
| --- | --- |
| GCTTCGGGGC | 1.01 ± 0.016 |
| GTGTGGAAGA | 1.019 ± 0.0054 |
| GACGGACAGG | 1.06 ± 0.024 |
| AGTTTGGGTC | 0.984 ± 0.057 |
| GTGGTTCTTG | 0.99 ± 0.019 |
| GGAGAAGGGT | 0.9967 ± 0.0047 |
| ACATAATTAG | 1.016 ± 0.0095 |
| TGATGTGGGG | 0.97 ± 0.029 |
| GTTCTTGGG | 0.9835 ± 0.0023 |
| AATTAGGCGG | 1.02 ± 0.02 |
| GCAGTATCAC | 1.05 ± 0.028 |
| TGAATTCTTT | 0.968 ± 0.041 |
| TTTGTTTGGA | 1.01 ± 0.046 |
| TTTGGATGCG | 1.01 ± 0.077 |
| TGTACTAGGG | 1.001 ± 0.0069 |
| GGGGTGGTAG | 1.01 ± 0.012 |
| CCCCGAGCCG | 1.02 ± 0.06 |
| GACTTTTTGT | 0.994 ± 0.011 |
| TAAGAGCAGG | 1.1 ± 0.091 |
| AATAGCTAAA | 0.999 ± 0.03 |
| ATCACGTGAT | 1.01 ± 0.023 |
| TAGGTAAAGT | 0.981 ± 0.03 |
| TTACCGTGTT | 1.08 ± 0.037 |
| AAAAGGTTAT | 1.02 ± 0.027 |
| ACCGGACATG | 1.07 ± 0.034 |

| Sequence | switch fluorescence ratio |
| --- | --- |
| CTGAGGGGT | 1.05 ± 0.037 |
| CGATATCTAC | 1.06 ± 0.016 |
| ACATCATAGC | 1.048 ± 0.0076 |
| GGGAGGGAGT | 1.01 ± 0.024 |
| GATGGCGGGT | 1.02 ± 0.07 |
| GAAAACTTAA | 1.029 ± 0.006 |
| CGGCTCGTTT | 1.049 ± 0.0079 |
| GACTTTGAAT | 1.014 ± 0.0089 |
| AAGACTTTTT | 1.025 ± 0.0076 |
| TAAGTTAAGC | 1 ± 0.064 |
| GGGTCATTCA | 0.9922 ± 0.0049 |
| TTACGGACGA | 1.317 ± 0.0043 |
| GTGAAGGGGT | 1 ± 0.047 |
| ATGAAAATCA | 1.01 ± 0.019 |
| TTACGGAACT | 1.164 ± 0.0041 |
| TTTTGCGTCT | 1.06 ± 0.071 |
| ATATTGAAAT | 1.01 ± 0.033 |
| ATACTCATAT | 1.01 ± 0.015 |
| TTACAAGAGG | 0.989 ± 0.024 |
| AAAAAAATCG | 1.01 ± 0.028 |
| TGCGGGGCAG | 1.04 ± 0.072 |
| GCGTAAGTTC | 0.981 ± 0.011 |
| ATGAAGTGAA | 1 ± 0.034 |
| TTACAGGGCT | 1.037 ± 0.0038 |
| AGCAGGTGTG | 1.18 ± 0.048 |

| Sequence | switch fluorescence ratio |
| --- | --- |
| GGTAGGTGGG | 1.01 ± 0.055 |
| TCAGATCTGT | 1 ± 0.024 |
| GGAGTCGTTG | 0.968 ± 0.011 |
| GTTCCGGGTT | 0.983 ± 0.075 |
| GCCGCCGGGG | 0.996 ± 0.032 |
| GGGAGAATGG | 0.98 ± 0.028 |
| GTTGAGGGTC | 0.993 ± 0.021 |
| CATTCGCCTC | 2.218 ± 0.015 |
| TAAAAGGGAC | 1.01 ± 0.028 |
| AAGGGTATTG | 0.995 ± 0.024 |
| GTTTATTGTC | 1.04 ± 0.037 |
| AAAGGGCAAT | 1.14 ± 0.18 |
| GAGTAAGTGC | 0.972 ± 0.053 |
| ACTGTTAGGC | 1.01 ± 0.056 |
| GGGTTTTAGC | 1.03 ± 0.076 |
| CAGTAATTGC | 1.05 ± 0.023 |
| GAAGGCAGTG | 1 ± 0.011 |
| TGCGATTCTG | 0.978 ± 0.032 |
| TCGCACGTAT | 1.03 ± 0.043 |
| GAGATCTGCT | 0.957 ± 0.015 |
| AGTGGGAGGA | 0.996 ± 0.02 |
| GAGTTATGG | 0.995 ± 0.043 |
| AATGAAAGCC | 1.26 ± 0.39 |
| ATGGAATGGG | 0.959 ± 0.01 |
| GTGTGACGGT | 0.949 ± 0.019 |

| Sequence | switch fluorescence ratio |
| --- | --- |
| CCGACGTAGG | 2.494 ± 0.017 |
| TTAAGTGTGA | 0.982 ± 0.013 |
| TCCAATTTGA | 0.998 ± 0.012 |
| TACCAAGTCC | 1.05 ± 0.061 |
| GTGAGTTTTT | 1.02 ± 0.022 |
| TTTTTCAGTG | 0.991 ± 0.039 |
| TGGCGTCTGA | 1 ± 0.013 |
| GGAAGTGGTC | 1.01 ± 0.059 |
| CAGATGGGAG | 1.02 ± 0.014 |
| GTTGATTTAT | 0.983 ± 0.024 |
| GTGCACGTTG | 1.01 ± 0.019 |
| AAAGGGGGCA | 0.99 ± 0.031 |
| TGGGGGAATC | 1.02 ± 0.046 |
| CGTCGCGTAT | 1.03 ± 0.021 |
| AAATGCTAGC | 1.01 ± 0.039 |
| GAGGGAGCTT | 1.04 ± 0.026 |
| ATGGGCATTA | 1 ± 0.017 |
| TGAAGTCCTT | 1.005 ± 0.0037 |
| TCATACGGTA | 1.179 ± 0.005 |
| AGTGAGGTTG | 0.977 ± 0.049 |
| TCCAGTAATA | 1.17 ± 0.19 |
| GAGGACTAGG | 1.01 ± 0.013 |
| CGGGTTAGTA | 1.02 ± 0.042 |
| GGCAAAGGGG | 1.01 ± 0.041 |
| GGGGGTGAGG | 1.01 ± 0.043 |

| Sequence | switch fluorescence ratio |
| --- | --- |
| GACGTCTGGG | 0.986 ± 0.013 |
| CGCTTAGGGT | 1.05 ± 0.07 |
| TGTCGTGTTT | 0.9679 ± 0.0014 |
| TTATGAGATA | 0.996 ± 0.035 |
| TCTTTTTTTA | 1.02 ± 0.06 |
| TTTGAGGGGG | 1.01 ± 0.066 |
| CGGATTTATC | 1.01 ± 0.033 |
| TTTGTTCGGT | 1.01 ± 0.013 |
| TGTTTTATCT | 0.9857 ± 0.0073 |
| CGGGGGCATA | 1 ± 0.029 |
| AGGGGTTTTT | 0.991 ± 0.011 |
| AATTCGTGTT | 0.989 ± 0.021 |
| TTTGGGTCTC | 0.998 ± 0.019 |
| TTTGGGCGAG | 0.976 ± 0.045 |
| TAAGAATTTG | 1.22 ± 0.34 |
| TAATTATGCC | 1.05 ± 0.04 |
| AGTTAAAGTG | 1.03 ± 0.057 |
| ATGGGGTGGT | 0.993 ± 0.025 |
| AGATGGATAA | 0.99 ± 0.015 |
| TATGGTCATT | 0.99 ± 0.015 |
| GGGAAAGGAA | 0.989 ± 0.018 |
| AGCTCGACGC | 1.19 ± 0.064 |
| ACATGATAGT | 1.01 ± 0.043 |
| TTAAAGCGCG | 1.04 ± 0.024 |
| GGGGTGAAGC | 1.02 ± 0.036 |
